Target: T1, CHIP-myc (wild type), Q9UNE7
T1 chain: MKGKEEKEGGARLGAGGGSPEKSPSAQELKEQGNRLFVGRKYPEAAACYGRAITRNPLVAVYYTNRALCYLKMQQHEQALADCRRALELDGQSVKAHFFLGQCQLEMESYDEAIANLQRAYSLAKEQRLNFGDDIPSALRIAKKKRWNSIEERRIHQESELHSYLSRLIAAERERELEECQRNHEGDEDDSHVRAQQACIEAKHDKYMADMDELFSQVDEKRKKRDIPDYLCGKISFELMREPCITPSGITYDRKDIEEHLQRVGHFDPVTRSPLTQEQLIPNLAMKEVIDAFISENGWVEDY
Assay: co-immunoprecipitation (anti-flag IP, anti-myc immunoblot), quantified
Conditions: chain shown with the change, serum deprived for 24 h, co-transfected with HSP70-V5 and CHIP-myc, read off a plot

B1: NEK10-flag (wild type), Q6ZWH5-1 T812A (protein)
chain: MPDQDKKVKTTEKSTDKQQEITIRDYSDLKRLRCLLNVQSSKQQLPAINFDSAQNSMTKSEPAIRAGGHRARGQWHESTEAVELENFSINYKNERNFSKHPQRKLFQEIFTALVKNRLISREWVNRAPSIHFLRVLICLRLLMRDPCYQEILHSLGGIENLAQYMEIVANEYLGYGEEQHTVDKLVNMTYIFQKLAAVKDQREWVTTSGAHKTLVNLLGARDTNVLLGSLLALASLAESQECREKISELNIVENLLMILHEYDLLSKRLTAELLRLLCAEPQVKEQVKLYEGIPVLLSLLHSDHLKLLWSIVWILVQVCEDPETSVEIRIWGGIKQLLHILQGDRNFVSDHSSIGSLSSANAAGRIQQLHLSEDLSPREIQENTFSLQAACCAALTELVLNDTNAHQVVQENGVYTIAKLILPNKQKNAAKSNLLQCYAFRALRFLFSMERNRPLFKRLFPTDLFEIFIDIGHYVRDISAYEELVSKLNLLVEDELKQIAENIESINQNKAPLKYIGNYAILDHLGSGAFGCVYKVRKHSGQNLLAMKEVNLHNPAFGKDKKDRDSSVRNIVSELTIIKEQLYHPNIVRYYKTFLENDRLYIVMELIEGAPLGEHFSSLKEKHHHFTEERLWKIFIQLCLALRYLHKEKRIVHRDLTPNNIMLGDKDKVTVTDFGLAKQKQENSKLTSVVGTILYSCPEVLKSEPYGEKADVWAVGCILYQMATLSPPFYSTNMLSLATKIVEAVYEPVPEGIYSEKVTDTISRCLTPDAEARPDIVEVSSMISDVMMKYLDNLSTSQLSLEKKLERERRRAQRYFMEANRNTVTCHHELAVLSHETFEKASLSSSSSGAASLKSELSESADLPPEGFQASYGKDEDRACDEILSDDNFNLENAEKDTYSEVDDELDISDNSSSSSSSPLKESTFNILKRSFSASGGERQSQTRDFTGGTGSRPRPALLPLDLLLKVPPHMLRAHIKEIEAELVTGWQSHSLPAVILRNLKDHGPQMGTFLWQASAGIAVSQRKVRQISDPIQQILIQLHKIIYITQLPPALHHNLKRRVIERFKKSLFSQQSNPCNLKSEIKKLSQGSPEPIEPNFFTADYHLLHRSSGGNSLSPNDPTGLPTSIELEEGITYEQMQTVIEEVLEESGYYNFTSNRYHSYPWGTKNHPTKR
B1 was tested, and the response (arbitrary units) (+FSK (30'), parent: est. 100) was 5 and the response (arbitrary units) (-FSK, parent: est. 10) was 28.
